We go through 68 sequences from the domain aggregation screens of Martell et al. (2025).

The series is described as follows: soluble fraction after stress (log2 fold change); higher = more stays soluble; pooled small domains, quantitative proteomics. The note with it: stress: 50 degC. In short, it runs like this: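 Quantitative proteomics served as the high-throughput read-out for pooled custom libraries of small protein domains. Each was stressed at 50°C. Aggregation propensity is expressed as the base-two log fold change in soluble protein after stress. A higher value means a larger share of the protein remains in solution.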
For “HMVQLAEGERYRRIQEANDFINRQQWPGKAAMGRLKDTEKAQYNLWLDYLDALEAVDTSSAPKINWPVPPE”, the “soluble fraction (log2)” value came out at 0.167.

With “HMVQQAVNMAKPGKLFTGPSPTSKALRDLDAGAMLYPTGEKQGPFWKVQDELGNEGWVAMGLLQLA”, the “soluble fraction (log2)” value came to 0.175.

“HMVQVDNELTEFSVQSITRGIDALGEVTIRVTAPDGGVYTGRGADNDIIVSSTKAYLNALNRLLNDK”: the “soluble fraction (log2)” value was -0.229.

Turning to “HMVQYVDFVKRMIEELPWWHRRMLELKYLDGLTYEEIADELQVPVGTVKGTLHRAKELFQEILKNN”, the “soluble fraction (log2)” value is -2.05.

For the sequence “HMVRDPYELLEVPREATPDEIKSAFRKLAARHHPDRNPDDPGAQERFKEINAAYQLLSDPQKRAMFDRFGA”, the “soluble fraction (log2)” value was determined as 0.169.

With “HMVRKIQAKLVLRLHAQGLSGRAIARSQGMSRRSVSDVLDAARAVGVGWDDVTGKTDGEVYALLFPGRG”, the “soluble fraction (log2)” value was -2.47.

“HMVRKIRARLVLQLRAEGLSGRAIAGSQGMSRKSVTAVLDAADRAGIGWDEIAERSEGEVYALLFPGRG”: the “soluble fraction (log2)” value is -1.34.

In the case of “HMVRQKYKSNFITVGDKSLTIHDWAQRLNLSQYALRNRYKEFGKEWVEKAIKTILETGDNTHIYK”, the “soluble fraction (log2)” value was -0.847.

In the case of “HMVRSLADQVYERLRRNIVSGDLAPNARIVELDIAAQMGTSQGPVREALQRLEREGLVQRRAHSATFVTD”, the “soluble fraction (log2)” value was -0.279.

On to “HMVRVSELAIEPRLVVEETATGFVGAVVRYANGLIELEDRHGAVRTFPLGPGYLVDGRPVSLVKPT”, for which the “soluble fraction (log2)” value is -0.371.

In the case of “HMVSEDELLARIALLPYPQAKILLEERLSHDPANAKVRQLYLELAKKSGDHTEVTRHNSLLY”, the “soluble fraction (log2)” value was -0.104.

In the case of “HMVSKIEAPLPGIILSVDVKEGDTVKAGDKLMVMEAMKMENAILAETNGVVKSIKVKIQDSVLQGDILAEI”, the “soluble fraction (log2)” value is -0.171.

As to “HMVSKSDVQRALEKVEPVLRKLGGSTVEKVRVMARQATLVFEMLKSWWKGEIDLPWKTVAAMTVTLLYL”, the “soluble fraction (log2)” value was -0.266.

With “HMVSLNKTEFIAVKKASASELRDKINSLGLDVLKDATISADARTNQIIATGPKYALEQIKMLVVGLDVSS”, the “soluble fraction (log2)” value is 0.0771.

For “HMVSLRQQVYDYLRSQMNQGELRPGSAINLGEMSSRFGISRTPLREALLQLETEGFVTIYPRKGIIVN”, the “soluble fraction (log2)” value was -0.793.

Turning to “HMVSLTGEWRPSKDALDILITKGGINPNFIDDAVPEFILYWRDRGDVSNTWDSKFIQHVRRQWQFYTGI”, the “soluble fraction (log2)” value was -2.93.

Consider “HMVSMSFDDYVNDAKEYESEGDKDKAYNSYLEAYKLNKSSEEVLDYLIDNTEDVTLKLNYVYEYLDL”, for which the “soluble fraction (log2)” value was -0.0996.

As for “HMVSNFEAEFGRHFAIFFPGSEFTELKLRLLEEGAELIDPIRDTPFERFFFKDPNGYIFEVIDKE”, the “soluble fraction (log2)” value is -2.28.

Consider “HMVSNRMVYSDFQQKWINNQVESINVNADKMTIEVTTQDEKKYTVYAPSSMIEFLNEQYPKDDIKIEYVAP”, for which the “soluble fraction (log2)” value is -0.147.

As for “HMVSPLEKSQSFGSFEISREFARTLGLTSARNWENWAASDSRPINIPYSPNVFYKNKGWIDWSDWLGTE”, the “soluble fraction (log2)” value is -0.286.

Consider “HMVSRQINVIPDDLAGLRLDQALAHLFPQHSRSRLKEWLLEDIIIVQGGPKRPKDIVSGGEIVEIKL”, for which the “soluble fraction (log2)” value was -0.0906.

With “HMVSYTLPTLHTGKNWYVDFTAYDPAEQKMKRKKYMLDGISKITERRKRAVDIIATVTARLRSGWNPWA”, the “soluble fraction (log2)” value was -2.7.

In the case of “HMVTARMPDLFGLDEATAQRMVSNAGLTLKTEYAYSDQAEGYVFDQTPEANAEVRRGGTVTAMIS”, the “soluble fraction (log2)” value came to 0.0381.

As to “HMVTEIDYGAFIKMTEEGNIGEVKIEDNQIVFTDKENKAIYKTGIMPDSDLTQRLYDSGAVFA”, the “soluble fraction (log2)” value came to 0.0785.

In the case of “HMVTEKPLYRDELMDHDTVWVEPISMDSHLRMELRGWYHVKNRFVENEVGQRFYFDFYDIKWLAFTNGP”, the “soluble fraction (log2)” value is -2.08.

As for “HMVTINTASLEKAIADAKAVVKESYTTDSYNAMKAVLDEAEDLLKEEAQDQDTIDAKTEALNAAIEALVKR”, the “soluble fraction (log2)” value came out at 0.0369.

As for “HMVTLPLLKRGHTGLPVKALQTLLVLRGMSVDVDGSFGEKTESAVRTFQTAAKILSDGEVGKDTWKALI”, the “soluble fraction (log2)” value is -1.43.

Turning to “HMVTPPMVVVDVQGEVKTPGVYHLPTNSRVNDAIKAAGGPKQSADLSYINQARMVKDGEQIYVEKKL”, the “soluble fraction (log2)” value stood at 0.12.

Take “HMVTTDPIADMLTRIRNASSQKHKSVDVPASKEKLAIAQILFEEGYIKSFEEIKEENNQGVIRITLKYTEK”: the “soluble fraction (log2)” value was -0.0766.

Take “HMVTVPNYSDPRQYVEWGNANGITINRAVGDTIASMSGRVQDVRDSNGNSVIGKKVKKGSTVTVYIYFLK”: the “soluble fraction (log2)” value is -0.00985.

In the case of “HMVTVSAVNITPKGHTTVGFTDRSVNPPSNYYLRVGESADGWTVKDADFDDEIATLEKDGVAITLKL”, the “soluble fraction (log2)” value was -0.0772.

As for “HMVTYELTEDEKFIVSLLEKENSQPIGALKDKSALSGKKWDAAMKGLAKHGLTKVVVDGDNKLVVL”, the “soluble fraction (log2)” value was -0.00965.

Regarding “HMVVEDDTVLQAVKQAIEENPEAVSDYFEGKSKALNFLVGQVMRITRGKADPAKTNQMVVEELKNR”, the “soluble fraction (log2)” value amounted to 0.111.

Take “HMVVMKGKVKWFNKNKGYGFIITDDNKEYFVHWKSIVTNSPRELKVLEQDELVTFDLMETDKGIQAINII”: the “soluble fraction (log2)” value is -2.14.

For “HMVVPELNLAQQDVLRALRQRGRATADHLSVDTHRPVSEVMGILLGLEIAEVLYRVEGGWFVPKTAR”, the “soluble fraction (log2)” value was -0.653.

With “HMVVSDKIAFSSFLKSVEDGRVVEVEITGNDIRGILSDGTVFNTYAPNDPNLVEKLTSKGVNITALPKE”, the “soluble fraction (log2)” value came to 0.19.

As for “HMVVYQRVHDEILQALKDNVYPVGTLLPPEPELERIYSVSRTTVRRAIAKLSEEGYVQVRQGYGTMVLKN”, the “soluble fraction (log2)” value was -0.576.

On to “HMWGAYHDGQVVKFPKKVTVYVIDGQYKRPLANEFVLKFLNYKTSDIIIDKDGNLNNYKNGAVVEH”, for which the “soluble fraction (log2)” value is -2.69.

“HMWMQKILGNYIAARRKELGMTQANLAEKIHVTDKAVSRWERGVGLPDIENLEALAKALEVSLVSLMQGKT”: the “soluble fraction (log2)” value was -1.59.

“HMWNGIVDAGKARQHLMNLSQLGVGRRAVAAASDVAETVLMDIRSGTKTRIRARTERQILAVTPEMA”: the “soluble fraction (log2)” value is -2.23.

For “HMWNTADDIKEAIWKLIQSEDPKKPYSDLKISQLLLEKEMKISRRTVAKYRKEMGILGTYSRK”, the “soluble fraction (log2)” value is -0.347.

Regarding “HMWQPIKLDRGDWQNSLQVGDRVFVRGIPRPVEILSAVDEENNIEVLMGTMRAKIPVYQLDKPAENFIDTT”, the “soluble fraction (log2)” value is -0.15.

Take “HMWQVVEVDYGTFMSMTEDGQVGRVEIQEQENLILFTDQEETTVYKTAMVDDPDLTARLHDAGIPFYGQE”: the “soluble fraction (log2)” value is -0.64.

As for “HMWSGEPFLDELRHADTLLETDPEAALAEYRALADKGSAAAMMALGNAYASGSHVARDEGEAEHWYRRAA”, the “soluble fraction (log2)” value came to 0.0547.

On to “HMWSLLVILQLREGGQRFSQLQRAIPDISQRMLTQTLRKLERDGLVSRKVTPSTPPRVDYAITELGH”, for which the “soluble fraction (log2)” value was -1.04.

As to “HMWSQEPEYRPLYNSMDGFDAGQVVEMLQQSRIDYKVEPNSGALLVRSEDLADARLRLASAGISP”, the “soluble fraction (log2)” value is -0.0156.

As to “HMYAEVTITIEKGMTSDSVSKLLYKAGIVDDAKEFNNYIIKAGKSTKILIGEFTIQKGASYDDIIKIIA”, the “soluble fraction (log2)” value was -1.37.

On to “HMYAGTVTQVKNNKVMLEFDGETVNVGDQFFILNSDGKKVAIVEITAAKNKKALANVLKGKAVVDGTTQAK”, for which the “soluble fraction (log2)” value was -0.111.

Regarding “HMYAVDTIHKGTITEMTDKGAVVSLGDNIDGFAPARQLVKEDGTTLKLGDTADFKVIEFSKATKRITLSH”, the “soluble fraction (log2)” value was found to be 0.286.

For “HMYAVQKGDTLKKIADQFGISVDTIKWANDMKGDALSIDQELKIP”, the “soluble fraction (log2)” value amounted to 0.057.

Take “HMYDAEAINKFFDIENWDFGETFYFQELSAYIMNQLSPKLVTILIVPRQTTQAFGSLFEIKSEPDEIFAS”: the “soluble fraction (log2)” value was -0.107.

As for “HMYDDEELDVLAHRPIESYTDAELAMLREVAETLLETDYEGWLKSLSMRGILLPPEILQLVT”, the “soluble fraction (log2)” value was -0.049.

Take “HMYDDLEPFDANGRLRWSDKELILAFGRHRGVTLQTLELNDPGYLRWLLSGNGPLEQQDRKRLEDILES”: the “soluble fraction (log2)” value was -1.27.

As to “HMYDEKTLRKAVLDYVRDNDDGRLDLMKIDSYLTSRYGNIDYAALGYNRLSMFISSFPELRRNSNYVTLRK”, the “soluble fraction (log2)” value was -0.164.

Regarding “HMYEDNERNLYSVVINFLNEHKIKISREAINLVINRSSGDKHNLKQELNKILNYSFSNKNITYETIEKLSN”, the “soluble fraction (log2)” value is -0.585.

On to “HMYEDNERSLVPIVQNFLKEKKILLSNQSINLIVQRSGGDRINLYNELQKIESFSKNQKKIDIGDIIKLTN”, for which the “soluble fraction (log2)” value was -0.286.

For the sequence “HMYEDSNQSLNFFAIKFIKEKNIKISQETTNLIVERARGDRGNLINELQKLEALSLTRKKITQEDVFNLTN”, the “soluble fraction (log2)” value was -0.774.

Take “HMYEGLILINKYDSLVSAKLETNKIKSLGLFFEDMEEKIAVFSGPFKNNDINLKLDFLIRNGYLDAKIY”: the “soluble fraction (log2)” value was -4.51.

On to “HMYEIEDIKEKLLDLLANSKTGFSGLEISNRLGINRITVSKYLNIFSAEGLIKQKNIGNVIIWFVEDGIE”, for which the “soluble fraction (log2)” value was -0.203.

Consider “HMYEVDGLGIRIAQLRKKQDLTQEAFARTLGVSPQAVSKWETGIGYPDITLLPQIAKELGVSIDQLFGRN”, for which the “soluble fraction (log2)” value worked out at 0.065.

For “HMYFGDADGNKKVDAADALYLKRHLADWEDYRELPQKTNVSWMDEASPANLMILERHIAGWKDYEMLPYT”, the “soluble fraction (log2)” value is -0.293.

As for “HMYFMDEETWESKKTLLNDWYEANPEYADRRAISDGLFKIGDLQPDFRRRHWGSIGVIFADIPNSPMG”, the “soluble fraction (log2)” value was -0.915.

Take “HMYGHKLDSYESYVVSELRRWPFLSAPQIHDRLKEHFSDLPLVTPKTVFNFVNRLRLTHSLPKE”: the “soluble fraction (log2)” value is -3.13.

Turning to “HMYGLSFLIGFTVVDRTYGDIGKVTAIDDSTVNTLMAVGDRLIPAQEAFITKIDNTKKIIYTQLPEGLL”, the “soluble fraction (log2)” value came out at 0.177.

On to “HMYGTQTVNRGAVQPGMLVKHKDSTWTASANARGRLYLHRGVEMTYTRDLLVEVYLNGLGNGL”, for which the “soluble fraction (log2)” value was 0.102.

Consider “HMYHADLIGLRVETAAGEKLGTVKAVHNFGAGDVIEITGAEDKDGLMVPFTAEVVPEVDIENGRIVVS”, for which the “soluble fraction (log2)” value is -0.331.

On to “HMYHKKEKAQAANIEERIMILLSDGKHHHITEIKAIYVDEVITLNILEEMLAEEKVIIEGDMIMLVE”, for which the “soluble fraction (log2)” value is -3.

Consider “HMYKLTTQRRAILDVIIENHDKHLNPEEIYDIVKEKYPEIGIATVYRTLQLLEKLNIIYRLNFDDGYNRYE”, for which the “soluble fraction (log2)” value is -2.3.
